From the DeepSol protein solubility set

assay: soluble on expression in E. coli; label from the status in PepcDB or PDB records

Sequence | soluble on expression in E. coli
FEHVLVFAPTGSGKTRSIGIPNLFNYPYSVVCNDVKLTLFRTTSGYRERVLGHRCFCWAPADENRITHCYNPLSLISEDKIQRLTDIQRIAHILMPDNKKSDPIWQQASRKLFKVAVLYLLDTPERPTTLGEINRLVKQAGFDDWLASVLEETNHLDPEFYRNGYSYLNNHEKTRSSILETFSGYFELFDDPTIDAATARSDFDLRQLRREKITIYIGFTDDDMERLSPLLTLFWQQLISVMIKNIPDPVDEPYPLLCLIDEFSSLGRIERLRRSLKLLREYRVRCVLIMQYIAQTYEQYTHDEAKAFTNIKTKIAFATEDIFDAEYVSKLLGTRTVKVSAGSTSTQTQGYSESKSYNYQAIPLLRPDEVMRLPEDQTLIMRTGHAPVKAEQMVWY | not soluble
MSLKLKEEERMTEMILEYKNQLCKQNKLIQEKKENVLKMIAEVKGKEQESEELTAKIQELKEEYARKRETISTANKANEERLKGLQKSADLYRDYLGLEIRKIHGNKLQFIFTSIDPKNPESPYMFSMSINEAKEYEVYDSSPHLECLAEFQEKVRKTNNFSAFLANIRKAFIAKVHN | not soluble
MSSRGVTAPQGFVAAGATAGIKPSGNKDMALVVNQGPEFVGAAVFTRNRVVASPVKYTKKAVANGTLRAVLYNSGNANACNGVQGDKDVHEIVDYLASKLKVDPLDIAACSTGLIGEPLPVTMIKAGVDKLIPALGDNGGEAADSIMTTDTVAKETVVKCNGWTLGGMGKGVGMMAPSLATMLVCLTTDACVTQAQAHAALSKACDVTFNTLDIDGSTSTNDTVILLANGASGITPTESEFNDAVLQACADIADQLQADAEGVTKRVRITVTGTTTDSQALNAARTLGRDNLFKCAMFGSDPNWGRVLAAVGMADADMDPDNISVYFNDQPVCLQSGGTPEARQVDLSGIDIDVRVDLGTGGPGKAFVRTTDLSHQYVEINSAYSSLEHHHHHH | not soluble
SGLYRIRVSTGASLYAGSNNQVQLWLVGQHGEAALGKRLWPARGKETELKVEVPEYLGPLLFVKLRKRHLLKDDAWFCNWISVQGPGAGDEVRFPCYRWVEGNGVLSLPEGTGRTVGEDPQGLFQKHREEELEERRKLYRWGNWKDGLILNMAGAKLYDLPVDERFLEDKRVDFEVSLAKGLADLAIKDSLNVLTCWKDLDDFNRIFWCGQSKLAERVRDSWKEDALFGYQFLNGANPVVLRRSAHLPARLVFPPGMEELQAQLEKELEGGTLFEADFSLLDGIKANVILCSQQHLAAPLVMLKLQPDGKLLPMVIQLQLPRTGSPPPPLFLPTDPPMAWLLAKCWVRSSDFQLHELQSHLLRGHLMAEVIVVATMRCLPSIHPIFKLIIPHLRYTLEINVRARTGLVSDMGIFDQIMSTGGGGHVQLLKQAGAFLTYSSFCPPDDLADRGLLGVKSSFYAQDALRLWEIIYRYVEGIVSLHYKTDVAVKDDPELQTWCREITEIGLQGAQDRGFPVSLQARDQVCHFVTMCIFTCTGQHASVHLGQLDWYSWVPNAPCTMRLPPPTTKDATLETVMATLPNFHQASLQMSITWQLGRRQPVMVAVGQHEEEYFSGPEPKAVLKKFREELAALDKEIEIRNAKLDMPYEYLRPSVVENSVAI | soluble
EVLPNFAENARPIEGKKPYTVLQLAGRAVYIKDSCNACHSQLIRPFKSETDRYGMYSVSGEFAYDRPFLWGSKRTGPDLARVGNYRTADWHENHMWDPTSVVPDSIMPSYKHMFKNNADIETAYAEALTVKKVFNVPYDAENGTKLGSWEDAQAEVKAEAQAIVDQMKNQEVKDAFAKGEIKEIVALIAYLNSLK | not soluble
GPGSMESSMSTGDLLTPGALWQDDTKVFVCSGRRCGRRFNRLFCPKHRCRWCGRVYCDACAPKQTVYKRQLLRKCNRCRLPVVFRYSWNERTRAMDCTPFECIISYLTPRSITALLQSCYTMMSEFPVCGYPFYDSIQQRFPSFYPGAQIGRGTFGTVFKCEDRSAADHKRAILKCISKATNLTYTRWMGALTELRILESVNHPNVAHLLGAFQTREDLVIVMEAGEGGTARRAAAGVREYGQAAEEAFTANIIEGVAAGLNYLYREKHIIHRDIKLDNIVLSADYSTPMIIDFGLAEFVVNEEEQWYVVGGTRNYAAPESIAAVANGHVDMKEPGITMHKGDLFSLGVVAYYLLSGHRPFRSRSFDKMHEEMRRGVACTGPLWDGVSSDARELVQALLSYDPAQRPDYAAIKENPFITARTAGVKSIQMQRNARLLLDEEETHAEWVTLEPSDLREAADEGESEVLLPLSTPQRWYHAYLPRFSLLHL | not soluble
MGSDKIHHHHHHMKRRPTINDVAKLAGVSISTVSRYLKDPSQVSEKLGERIREAIKKLGYKPNKIAQGLRTGDSKMIGFIVPDITNPAFLTIVKGAEDFLRKKGYSFIIGGTDHKSKDEVVILESFIFHNVDGVIVTCTGYENKALKELIERYHLKLVFVDRRYPGIDAPYIGVDNFGGVARMVDYLVETGHRSFAYLCGDMTSTAKERLEGFLDRMKKYKIKDYQVLYGEFTFESGYKLTKRLSKIPDAIIAGNDLMAFGVIEALKERGLVVPEDVSVTGFDDMFFSKYYKPSLTTVRQDLYEMGKQAGKVLFALISGKKIRKKEYILPTEIVIRDSVKERRA | not soluble
MAHHHHHHMRVIIQRVKNAALSVIKEESKETEKQLELFSEIKNGIICFVGIHKNDTWKDAMYIIRKCLNLRLWSDGNKSWDKSVKDLNYEILFVSQFTLFANTKKGNKPDFHLAKEPKEALAMYNKMVEQFAKDYNHEKIKTGKFGCYMNIQVTNDGPVTIFIDSHDVNLDN | not soluble
MSLIEDCLRSYRFIAIDTEFPSTLRETTQHATDEERYMDMSFSVDRAKLIQLGLTLFDINGRIGGTWEINFSDFGVDDARNEKSIEFLRRNGLDLRKIREEGIRIEGFFSEMFWMLKKTRRNITWVTFHGSYDIAYLLKGFTGEALPVTSERFSKAVARVLGSVYDLKVMAGRCEGLSSRLGLETLAHEFGLNRVGTAHHAGSNNELTAMVFAKVLSPFPLFLRFGSLELRTIESEAIV | soluble
MSLTVQDLHFKNKVNFIGGQYVPSNESDTIDILSPSTGKVIGEIPAGCKADAENALEVAQAAQKAWAKLTARTRQNMLRTFANKIRENKHILAPMLVAEQGKLLSVAEMEVDVTATFIDYGCDNALTIEGDILPSDNQDEKIYIHKVPRGVVVGITAWNFPLALAGRKIGPALITGNTMVLKPTQETPLATTELGRIAKEAGLPDGVLNVINGTGSVVGQTLCESPITKMITMTGSTVAGKQIYKTSAEYMTPVMLELGGKAPMVVMDDADLDKAAEDALWGRFANCGQVCTCVERLYVHASVYDEFMAKFLPLVKGLKVGDPMDADSQMGPKCNQREIDNIDHIVHEAIKQGATVATGGKTATVEGFEGGCWYEPTVLVDVKQDNIVVHEETFGPILPIVKVSSMEQAIEFCNDSIYGLSAYVHTQSFANINQAISDLEVGEVYINRGMGEQHQGFHNGWKQSGFGGEDGKFGLEQYLEKKTVYINEAEGHHHHHH | soluble
MAHHHHHHMGTLEAQTQGPGSMTPAAHPPRAAIADIAGHLPEQVLTNDVLAQLYPDWPAEKILAKTGIRERRIAAPRETAADLAYEAARKLFAQGAVGADQVDFVILCTQAPDYVLPTSACMLQHRLGIPTHAGALDVNLGCSGYVYGLSLAKGLVETGAARCVLLLTADTYSKYLHPLDKSVRTLFGDGASATAVIAEHGELERIGPFVFGTDGRGAPNLIVKAGLFREPKSADSAREHEDASGNVRTDEHLYMNGAEVMAFSLAEVPRAADRLLALAGEPRENIDCFVLHQANRFMLDALRKKMKIPEHKFPVLMEHCGNTVSSTLPLALETMRANGTLARGMRLMLLGFGVGYSWAGCLVNF | soluble
MKLLILGNHTCGNRGDSAILRGLLDAINILNPHTEVDVMSRYPVSSSWLLNRPVMGDPLFLQMKQHNSAAGVVGRVKKVLRRRYQHQVLLSRVTDTGKLRNIAIAQGFTDFVRLLSGYDAIIQVGGSFFVDLYGVPQFEHALCTFMAKKPLFMIGHSVGPFQDEQFNQLANYVFGHCDALILRESVSLDLMKRSNITTAKVEHGVDTAWLVDHHTEDFTASYAVQHWLDVAAQQKTVAITLRELAPFDKRLGTTQQVYEKAFAGVVNRILDEGYQVIALSTCTGIDSYNKDDRMVALNLRQHISDPARYHVVMDELNDLEMGKILGACELTVGTRLHSAIISMNFATPAIAINYEHKSAGVMQQLGLPEMAIDIRHLLDGSLQAMVADTLGQLPALNARLSEAVSRERQTGMQMVQSVLERIGEVK | soluble
RDILEVLQDIHMETGETVAIATKNDIYLQYIQIIESVHALRFHVDENAIRPLTMSSNGWMLMSTMNDKAIDNTVRRANTITQKDGIRFEVDDMMARIRQVREQGYASAEHIPFVGGGTICVLLPMTIQGQPVTMGLGGALDRIKQNYDRYLELLLNGVQQLKKSDSFHQPIELAH | not soluble
MSLSKILIAGCGDLGLELARRLTAQGHEVTGLRRSAQPMPAGVQTLIADVTRPDTLASIVHLRPEILVYCVAASEYSDEHYRLSYVEGLRNTLSALEGAPLQHVFFVSSTGVYGQEVEEWLDEDTPPIAKDFSGKRMLEAEALLAAYSSTILRFSGIYGPGRLRMIRQAQTPEQWPARNAWTNRIHRDDGAAFIAYLIQQRSHAVPERLYIVTDNQPLPVHDLLRWLADRQGIAYPAGATPPVQGNKKLSNARLLASGYQLIYPDYVSGYGALLAAMREGHHHHHH | soluble
MDPVEAGDWIAGRPLQLVFLSGLNPVNKPAHNSIVNVFRNRTADKPPLHIRVVSGELDIPPKRETGSGKGILRREWPQKYLDKVPALIVVFIDLEWDHPSWEEKKTEAESKVASIRGSLRHGTKIALVLIQQKSTSISDNLAADRAHELCQACSLSSKQLFILPADNLLAPNTTNLQNFALKLELAFHELCQAFYQQRLKTIRSRNIPNNSPALVVRQQFKLAFLSELRQDTHTALRNYRLAYDQCRDTVEQWDGVDVFEWRSVVGLLNYKVQQGLLKTKNSVISTRGMCELCFLHSTALEAINQMRRHTTVFFSSSPGIYPTPHLASIELLLWKSKQCYQFAHLFERSVAGGLSALATLNPGTHLDQAASIYSAANTEIAALKRNAPQNVPYPSPDPLANSSSTVFFGQRPWRINHEGLATAEVEAAAVTAIIQRLVVNHEGVISLLSAALAQYQKYGCLRMKKKVMMEMANTCYANNEIQRALRFWGLVVKDNALPYSIRKDMMHRATWAAYAITSIQDYAVCCMQLMCPAYSEVLPSDCVKGLLDVLDGKPPGSPFPNDDISQEQLHTYQLQWQHVLQEHPAFVVQASKIAELFLETRVSFLDQQTVEQDSKVAVRVEIVSKIEQVIRLNDVSVHLKAKKFPPDANQTANDADCLIYDPIHLGSVEVSKSKPLQRVVLLDLKNAKQNWIVTVTKVTLDLGNAIRGNIEFDENALNRNCHVENIIGLEFLKIGVAKTSVKLESVEKVDCLIGEVTSTELTIRNTCKSSPIHGLQLDFKRKEQKHAEAAAVLFVEQDGTELKSEFSKSVCEQLGAGEMAKIPVMFSAQLVGDYVLQLELSYKISEDGILVTKSTMLEVGVTAKEPFTVTSTVMNMNGIPMTSILNNCDHILNASIQSAASIVISSVEFLMADVVTLCDTINGGSGKNLNDKVHSEEVICYSAVIRVLVKEDESETPLGRMSVEWRRAVPNSCPVRSVAPLCRIPVLACPISISSHIKTNPAIVRQPIEICFELKSHSKEAVEISTNFDLNDVFMFSGERKVTMTVLPGATRRVTVVVMALSAGRLNFPKISLKSPQISDQTLQQSLRTLPAAIFVLPKAKDLAPHP | not soluble
SPVTKCPRKVEPPWKGWDRKAQKNGLRHQVFAVNGDHYVGEWKGNLKHGKGTQVWKKSGAVYEGDWKFGKRDGYGSLSHPDPETGKLRRVYSGWWKGDKKSGYGIQFFGPKEYYEGEWCNNQRSGWGRMYYNNGDIYEGQWQNDKPEGEGMLRLKNGNRYEGIWERGMKNGHGRFFHLDHGQLFEGYWVDNVAKCGTMIDFGRDEAPEPTQFPIPKVEILDPDGVLKEALDKLMKPEEEEG | soluble
